Data on one molecule can be found in publication PMC11040377 (2024).

The target of this test is Tau-biotin monomer (human, UniProt P10636-8 1-441, biotin (Sulfo-NHS-LC-Biotin)).

B1: Lag3 (lymphocyte-activation gene 3), on transfected SH-SY5Y cells (receptor)
chain: GPGKELPVVWAQEGAPVHLPCSLKSPNLDPNFLRRGGVIWQHQPDSGQPTPIPALDLHQGMPSPRQPAPGRYTVLSVAPGGLRSGRQPLHPHVQLEERGLQRGDFSLWLRPALRTDAGEYHATVRLPNRALSCSLRLRVGQASMIASPSGVLKLSDWVLLNCSFSRPDRPVSVHWFQGQNRVPVYNSPRHFLAETFLLLPQVSPLDSGTWGCVLTYRDGFNVSITYNLKVLGLEPVAPLTVYAAEGSRVELPCHLPPGVGTPSLLIAKWTPPGGGPELPVAGKSGNFTLHLEAVGLAQAGTYTCSIHLQGQQLNATVTLAVITVTPKSFGLPGSRGKLLCEVTPASGKERFVWRPLNNLSRSCPGPVLEIQEARLLAERWQCQLYEGQRLLGATVYAAESSSGAHSARRISGDLKGGHLVLVLILGALSLFLLVAGAFGFHWWRKQLLLRRFSALEHGIQPFPAQRKIEELERELETEMGQEPEPEPEPQLEPEPRQL
A word on the Kd: it is the free concentration of one partner at which half of the binding sites on the other are occupied at equilibrium, for simple one-to-one binding. Consider B1, for which the Kd was greater than 2000 nM.
